{"source": "the RNAGym collection of RNA variant scans (doi:10.7554/elife.80360)", "parents": {"B1": {"name": "Hairpin Ribozyme (parent)", "chain": "GUCCUCUUUCACGUGCGCGUGAAAGAGAGAAGUGAACCAGAGAAACACACGUUGUGGUAUAUUACCUGGUA"}}}
{"variants_of": "B1", "test": "self-cleavage, relative activity (ratio to wild type); higher = more cleavage; co-transcriptional"}
{"variant": "A36U U62A", "self-cleavage": 0.154}
{"variant": "A36U U62G", "self-cleavage": 0.216}
{"variant": "G34U C38G", "self-cleavage": 0.595}
{"variant": "G34U C38U", "self-cleavage": 1.42}
{"variant": "G34C G40U", "self-cleavage": 0.541}
{"variant": "A35C U55G", "self-cleavage": 0.27}
{"variant": "A35C U55A", "self-cleavage": 0.177}
{"variant": "G34U A64G", "self-cleavage": 1.17}
{"variant": "G34U A64C", "self-cleavage": 0.376}
{"variant": "A35G C38A", "self-cleavage": 0.162}
{"variant": "G34C A45G", "self-cleavage": 0.368}
{"variant": "G34C C37G", "self-cleavage": 0.781}
{"variant": "G34C C37A", "self-cleavage": 0.898}
{"variant": "C37A A39C", "self-cleavage": 0.128}
{"variant": "G34A A64U", "self-cleavage": 0.125}
{"variant": "G34U G69A", "self-cleavage": 0.93}
{"variant": "A35C A44G", "self-cleavage": 0.0678}
{"variant": "A36C U70A", "self-cleavage": 0.958}
{"variant": "G34U A71G", "self-cleavage": 1.58}
{"variant": "G34U A71U", "self-cleavage": 1.36}
{"variant": "A35G U60G", "self-cleavage": 0.443}
{"variant": "A36U A44U", "self-cleavage": 0.285}
{"variant": "G34A U60G", "self-cleavage": 1}
{"variant": "A36G A49G", "self-cleavage": 0.339}
{"variant": "A36G U63A", "self-cleavage": 0.23}
{"variant": "A36G U63C", "self-cleavage": 0.201}
{"variant": "A36G A47G", "self-cleavage": 0.106}
{"variant": "A36U A41U", "self-cleavage": 0.868}
{"variant": "G34U G42A", "self-cleavage": 0.883}
{"variant": "G34U A43C", "self-cleavage": 0.0997}
{"variant": "G34U A43U", "self-cleavage": 0.0758}
{"variant": "A35C C46A", "self-cleavage": 0.0748}
{"variant": "G34C A35G", "self-cleavage": 1.4}
{"variant": "G34C A35C", "self-cleavage": 1.25}
{"variant": "G34C C48G", "self-cleavage": 0.16}
{"variant": "A35G U53A", "self-cleavage": 1.25}
{"variant": "C37A G51U", "self-cleavage": 0.563}
{"variant": "G34U A44C", "self-cleavage": 0.202}
{"variant": "A36C G51A", "self-cleavage": 0.799}
{"variant": "A36U A47C", "self-cleavage": 0.146}
{"variant": "A36G C37A", "self-cleavage": 0.297}
{"variant": "A35U C50U", "self-cleavage": 0.18}
{"variant": "G34U G56C", "self-cleavage": 0.409}
{"variant": "A35G C46A", "self-cleavage": 0.125}
{"variant": "C37A G57A", "self-cleavage": 0.145}
{"variant": "A36U C37U", "self-cleavage": 0.21}
{"variant": "A36U C37A", "self-cleavage": 0.184}
{"variant": "C37A A64U", "self-cleavage": 0.392}
{"variant": "A35C C48G", "self-cleavage": 0.131}
{"variant": "G34A C50U", "self-cleavage": 0.653}
{"variant": "A36U G68U", "self-cleavage": 0.118}
{"variant": "G34U U67C", "self-cleavage": 0.976}
{"variant": "G34U U67A", "self-cleavage": 0.876}
{"variant": "G34C G54U", "self-cleavage": 1.19}
{"variant": "A35C C66U", "self-cleavage": 0.558}
{"variant": "A36G C50A", "self-cleavage": 0.34}
{"variant": "A36C A71C", "self-cleavage": 0.975}
{"variant": "A36C A71U", "self-cleavage": 0.654}
{"variant": "C37A G40U", "self-cleavage": 0.129}
{"variant": "C37A G40C", "self-cleavage": 0.158}
{"variant": "C37A G40A", "self-cleavage": 0.174}
{"variant": "A36C G42A", "self-cleavage": 0.0682}
{"variant": "A36C G42U", "self-cleavage": 0.116}
{"variant": "A35C C50G", "self-cleavage": 0.37}
{"variant": "A35C C50U", "self-cleavage": 0.438}
{"variant": "A36G A61G", "self-cleavage": 0.154}
{"variant": "A36G A61U", "self-cleavage": 0.205}
{"variant": "G34A A47U", "self-cleavage": 0.144}
{"variant": "G34A A47G", "self-cleavage": 0.302}
{"variant": "G34A A47C", "self-cleavage": 0.451}
{"variant": "A35G U58C", "self-cleavage": 1.11}
{"variant": "A35C A43C", "self-cleavage": 0.0885}
{"variant": "A35G U62G", "self-cleavage": 0.139}
{"variant": "A35G U55C", "self-cleavage": 0.3}
{"variant": "C37A A49U", "self-cleavage": 0.0951}
{"variant": "A35G U52G", "self-cleavage": 0.97}
{"variant": "G34C A64G", "self-cleavage": 0.792}
{"variant": "G34C A64U", "self-cleavage": 0.442}
{"variant": "A36G G57A", "self-cleavage": 0.148}
{"variant": "A36G G57C", "self-cleavage": 0.124}
{"variant": "G34C U52G", "self-cleavage": 0.379}
{"variant": "G34A C65G", "self-cleavage": 0.477}
{"variant": "G34A A71C", "self-cleavage": 1.6}
{"variant": "G34A U67G", "self-cleavage": 0.346}
{"variant": "G34A U67C", "self-cleavage": 0.463}
{"variant": "G34A U55C", "self-cleavage": 0.487}
{"variant": "G34U U62G", "self-cleavage": 0.139}
{"variant": "A36G U62A", "self-cleavage": 0.179}
{"variant": "A36U C48U", "self-cleavage": 0.0683}
{"variant": "G34U G54A", "self-cleavage": 1.3}
{"variant": "A35C G51C", "self-cleavage": 0.725}
{"variant": "A35C A59G", "self-cleavage": 0.124}
{"variant": "A35C A59U", "self-cleavage": 0.105}
{"variant": "A35C C65A", "self-cleavage": 1.08}
{"variant": "A36G C66G", "self-cleavage": 0.288}
{"variant": "G34C G69C", "self-cleavage": 0.564}
{"variant": "A36U A64G", "self-cleavage": 0.219}
{"variant": "A36U A64C", "self-cleavage": 0.0976}
{"variant": "G34A U58G", "self-cleavage": 1.36}
{"variant": "G34A U58A", "self-cleavage": 1.09}
{"variant": "G34C U70C", "self-cleavage": 1.42}
{"variant": "C37A A61U", "self-cleavage": 0.142}
{"variant": "C37A A61C", "self-cleavage": 0.136}
{"variant": "A36G G42C", "self-cleavage": 0.347}
{"variant": "G34A C46U", "self-cleavage": 0.135}
{"variant": "A36C A45C", "self-cleavage": 0.236}
{"variant": "G34C A61C", "self-cleavage": 0.733}
{"variant": "A35G A39G", "self-cleavage": 0.348}
{"variant": "A36U A71G", "self-cleavage": 0.829}
{"variant": "A36U A71U", "self-cleavage": 0.524}
{"variant": "G34U A41U", "self-cleavage": 1.53}
{"variant": "A35C U70C", "self-cleavage": 1.01}
{"variant": "A35U A61G", "self-cleavage": 0.137}
{"variant": "G34A A61G", "self-cleavage": 0.091}
{"variant": "C37A A45C", "self-cleavage": 0.189}
{"variant": "A36G G54C", "self-cleavage": 0.544}
{"variant": "A36G G54A", "self-cleavage": 0.715}
{"variant": "A36C A64U", "self-cleavage": 0.309}
{"variant": "A35C U62A", "self-cleavage": 0.226}
{"variant": "A35C U62G", "self-cleavage": 0.172}
{"variant": "A35C U62C", "self-cleavage": 0.103}
{"variant": "A35U U67A", "self-cleavage": 0.126}
{"variant": "A35U U67G", "self-cleavage": 0.161}
{"variant": "A36G U55A", "self-cleavage": 0.301}
{"variant": "A35U A64G", "self-cleavage": 0.465}
{"variant": "A35U A64U", "self-cleavage": 0.178}
{"variant": "A35U A71U", "self-cleavage": 0.978}
{"variant": "A35U A71G", "self-cleavage": 0.962}
{"variant": "A36U G40C", "self-cleavage": 0.101}
{"variant": "A36U G40U", "self-cleavage": 0.126}
{"variant": "A36U A59G", "self-cleavage": 0.19}
{"variant": "A36C G40A", "self-cleavage": 0.162}
{"variant": "A35C A64U", "self-cleavage": 0.192}
{"variant": "A35U C46U", "self-cleavage": 0.143}
{"variant": "A35U C46A", "self-cleavage": 0.16}
{"variant": "A35C U58C", "self-cleavage": 0.798}
{"variant": "A36C A61C", "self-cleavage": 0.116}
{"variant": "G34C C46G", "self-cleavage": 0.0437}
{"variant": "G34C C46A", "self-cleavage": 0.238}
{"variant": "G34U U60C", "self-cleavage": 1.42}
{"variant": "G34U U60G", "self-cleavage": 1.34}
{"variant": "A36C C65U", "self-cleavage": 0.118}
{"variant": "C37A A71G", "self-cleavage": 0.323}
{"variant": "G34A U53G", "self-cleavage": 1.17}
{"variant": "A35C A71G", "self-cleavage": 0.422}
{"variant": "G34C C65U", "self-cleavage": 1.04}
{"variant": "G34C C65G", "self-cleavage": 1.07}
{"variant": "G34C A59C", "self-cleavage": 0.145}
{"variant": "G34C A59U", "self-cleavage": 0.202}
{"variant": "A36G A41C", "self-cleavage": 1.1}
{"variant": "A35U C38G", "self-cleavage": 0.235}
{"variant": "G34C U58G", "self-cleavage": 1.09}
{"variant": "G34C U58A", "self-cleavage": 1.27}
{"variant": "G34A A49G", "self-cleavage": 0.754}
{"variant": "G34A A49C", "self-cleavage": 0.12}
{"variant": "A36U G57U", "self-cleavage": 0.209}
{"variant": "A36U G57A", "self-cleavage": 0.108}
{"variant": "G34A C37U", "self-cleavage": 0.915}
{"variant": "C37A C38U", "self-cleavage": 0.0834}
{"variant": "C37A C38A", "self-cleavage": 0.144}
{"variant": "G34A C48U", "self-cleavage": 0.191}
{"variant": "G34C G57C", "self-cleavage": 0.195}
{"variant": "A35C U63G", "self-cleavage": 0.286}
{"variant": "A36G G40C", "self-cleavage": 0.122}
{"variant": "G34C C50G", "self-cleavage": 1.45}
{"variant": "G34C C50U", "self-cleavage": 1.36}
{"variant": "A36U G51C", "self-cleavage": 0.446}
